Assay: label from the status in PepcDB records

Row | Sequence | protein production
1 | MPNTIRLHRVLSAPPERVYRAFLDPLALAKWLPPEGFVCKVLEHDARVGGAYKMEFLAFASGQKHAFGGRYLELVPGERIRYTDRFDDAGLPGDMITTITLAPLSCGADLSIVQEGIPDAIPPENCYLGWQQSLKQLAALVEPDMPGLEHHHHHH | not failed
2 | MVPCWNHGNITRSKAEELLSRTGKDGSFLVRASESISRAYALCVLYRNCVYTYRILPNEDDKFTVQASEGVSMRFFTKLDQLIEFYKKENMGLVTHLQYPVPLEEEDTGDDPEEDTVESVVSPPELPPRNIPLTASSCEAKEVPFSNENPRATETSRPSLSETLFQRLQSMDTSGLPEEHLKAIQDYLSTQLAQDSEFVKTGSSSLPHLKKLTTLLCKELYGEVIRTLPSLESLQRLFDQQLSPGLRPRPQVKG | not failed
3 | MTLKPTQQRLLLMLGWLHLQCGQPRRAQVLLEALLSVAPERRDGRRALLLALLQQGLGEPAVRLCRQLQEDGEEEPGLWRCLSRAEQLAGRLDAARAAHARALELEARELEHHHHHH | not failed
4 | MALPPYDPNFKFAFSLGTIAKHQDYDESASAAVVALDLISSARFALKLDSVYTEYSAKYVVDNAAGSHSGRKLTVKDCLEFALNKGGIPKAEDWPRLGSVITPPSSYKPDLVSMKGQVIEPQTIEEACDMVVDQPVGAKLHVFKPHIELQQDASAITGIYCGTSGEPASYVGLRDAIIVGVEKIQGKSIGTVKVWYKKFIFLKVAMSRWFQLYSPDGTHTGIKRTDYLVDFCVPRLSMD | failed
5 | MSLSLLVIGSLAFDDIETPFGRSDNTLGGSSTYIALSASYFTDEPIRMVGVVGSDFGKEHFDLLHAKNIDTRGIQVIEDGKTFRWAGRYHYDMNTRDTLDTQLNVFAEFDPHVPQYYRDSKFVCLGNIDPELQLKVLDQIDDPKLVVCDTMNFWIEGKPEELKKVLARVDVFIVNDSEARLLSGDPNLVKTARIIREMGPKTLIIKKGEHGALLFTDNGIFAAPAFPLESIYDPTGAGDTFAGGFIGHLARCGNTSEAEMRKAVLYGSAMASFCVEQFGPYRYNDLDLLEVDDRYQSFLELSRIEEGHHHHHH | not failed
6 | GMIDGHHHLTQSFAKSLAYGEPSEIFKRIWVPLESNLNEQFVYLCTKLAALESLRGGFTTVCDAGTRSEIGMQLMVRALEETGLRCVLSLICNDGRAHSTLELRQNILENAQIFIKSYKQHKNVHPSLAISIPEVASDDMLYEVSKLCANSNIIFQVHVNEHLASVERSIIQQGMRPLEHLAKVGALGPQTLIAHATMLTPSELLLLQRTDTAVSYNPVASQWKGNAVASAHLMHELNIRFALGTDATRADGFRLLDAAEATQKLIFGIPTGDCSTGGGWMWLDHATTAGAEAVGLSQL | failed
7 | MTGPTPTEAVDITVSVGGFKVGDQNYPINPKITFTNNTGQAIPGGTEFQFDIPVSAPDNAKDQSGGGLKVIASGHTRANNIGGLDGVMHRVSFSLPAWKDLPAGGTYELDMVYYLPISGPANYSVISGGKEFAFKFEQPDLPIGDLNAGTGGGGTTEPGSCDTAGLVTYPNLPQTDLEHHHHHH | failed
8 | MSEPVSSATVLAGGLMGASVFGLATGTDYGVVFGAFAGSVFYVATATNIGRIRLVAYFITSFIVGVLGAGLIGTKLAAITHYEKPLDALGAVIISAMCIKFLTFLNSQDLNTLFSILSRIRGGGSDGSK | failed
9 | MTLMVPFKQVDVFTEKPFMGNPVAVINFLEIDENEVSQEELQAIANWTNLSETTFLFKPSDKKYDYKLRIFTPRSELPFAGHPTIGSCKAFLEFTKNTTATSLVQECKIGAVPITINEGLISFKAPMADYESISSEMIADYEKAIGLKFIKPPALLHTGPEWIVALVEDAETCFNANPNFAMLAHQTKQNDHVGIILAGPKKEAAIKNSYEMRAFAPVINVYEDPVCGSGSVALARYLQEVYKFEKTTDITISEGGRLKRNGLMLASIKKEADNSTSYYIAGHATTVIDGKIKV | not failed
10 | MFLDRERELQFLERRYEMGGPEFIVIYGRRRVGKTALLLEFISRHGGIYLLARETSNLENLKRFSDRLSEYFGDDFLKRNPFQNWDAFLEYLNQKATERLVVVIDEFPYLVKGDRSLPSILQEYWDLKLSNGRIFLIICGSSISMMEKLLGYKSPIYGRRTGQINLKPVDFLHAREFLPGYSLEDFIKAYGILGGSPAHLLEFDDSKTIKENLLEYLRSDSLLYQDAFFVLREELEEPRNYFAIMEAVAAGKTSLGEIMNETGLSRATVAKYLSVLIELDFVKREIPITASRKSRRGRYYIKDNYFAFWFRYIHPNIDFIESERRKELLELIIDDLPNYLGGIFENVAIEFLPLISNKLPFKPLKIGRWWHKNEEIDLVAFNEKEEKAILIEVKWKTLNKIEANKILKDLNRKSKILKMKEWEQYHGIIAKRVKDKEKIKGGLIWDLEDIENLKFSPELEHHHHHH | not failed
11 | MTKKLNPLEDPPTATSSDEDDVETSEAGEASDDSSSSEEDVPIKIRIKSPSATTAAAPPAKSTAVSTAADSDSGSETETDSDSESTNPPNSGSGKTIALNTVNLKKKEDPTSSSATLALPAMKSGTKRPASEAAATTSTKRVKKDEESVKKPGGFQRLWSEEDEILVLQGMIDFKADTGKSPYVDTNAFYDFLKKSISFEVSKNQFMDKIRSLRKKYIGKEGRNEPSFVKAHDKKAFELSKFIWGPKGIALDSNVKSNGVSKKSVAKKKIDSVKQELVFAGGSSTNGKKVEEDGGDDGCDWFDNSSLVRMIASLGVDEYYVKQQWSLVSVESKKIVEEKYKLLQAKELEFVLEKTKFLNEVASMFVEASKNKPLDT | failed
12 | MKLETIDYRAADSAKRFVESLRETGFGVLSNHPIDKELVERIYTEWQAFFNSEAKNEFMFNRETHDGFFPASISETAKGHTVKDIKEYYHVYPWGRIPDSLRANILAYYEKANTLASELLEWIETYSPDEIKAKFSIPLPEMIANSHKTLLRILHYPPMTGDEEMGAIRAAAHEDINLITVLPTANEPGLQVKAKDGSWLDVPSDFGNIIINIGDMLQEASDGYFPSTSHRVINPEGTDKTKSRISLPLFLHPHPSVVLSERYTADSYLMERLRELGVL | not failed
13 | AIACHTQVGGSMQVPEPRRPFTCSSENNVTNSFFEEAYSASFRSKLYNMVEEIEQERAKYCNSANLSYMDAFGVEKESIEEDYNKEEDRDSLCSVDIADNSETSNRSSEDLLCDNCSKSLMFLNNVFKWNDLLFCNLDCYTSAILKNQKGADVKHRVACSLSPTWHKDCVHSVQD | not failed
14 | MKNYLQILRETLKAMLSKPMWLMVVASVCITSLPYMNHTALDLPVAVVDEDHSDVSRELVRLLDSAPKVAVVGYDSLPQAKRDLAWRKLYAIIVIPLNFEKRLLRGEALVIPYFGDATNRMANGQIQQDISAVYSALTNRYNAALLEREGFTATQAQVVLSPLVGQLTDLFNPGISFAAIVLPGLLSLILQHSLLLGCTRGNIMLRGGTPRYMRQPLSTRFGRYSAQLLIWTVLAMLFYVIWPHLLGYRQSASFFMLLGIVLPFLIAVIALSEFIAELLPTEESVYLTMTFITLPLFYMAGYSWPEQAMPDWVRWLADAIPSTWAIRAIAEMNQMDLPLREVSDHALVLLGMAATYALLGTLLYQYRNWRWDNVKGW | failed
15 | MKVNILMATYNGEKFLAQQIESIQKQTFKEWNLLIRDDGSSDKTCDIIRNFTAKDSRIRFINENEHHNLGVIKSFFTLVNYEVADFYFFSDQDDVWLPEKLSVSLEAAKHKASDVPLLVYTDLKVVNQELNILQDSMIRAQSHHANTTLLPELTENTVTGGTMMINHALAEKWFTPNDILMHDWFLALLAASLGEIIYLDLPTQLYRQHDNNVLGARTMDKRFKILREGPKSIFTRYWKLIHDSQKQASLIVDKYGDIMTANDLELIKCFIKIDKQPFMTRLRWLWKYGYSKNQFKHQVVFKWLIATNYYNKRLEHHHHHH | not failed
16 | MRERLFANVRLRLSGGRQAAYISRAMSAAPDLRDPPPAHVRRLDPILVDRIAAGEVVERPASAVKELVENAIDAGARSIEVAIEGGGRRLIRVVDDGIGMGPDDLALAVERHATSKLPDGDLTRIGSLGFRGEALPSIGAVSRLTITSRTADGEGVSLTLDSGVKGPVRPAPASRGTRIEVTELFAATPARLKFLKTDRAETAAVSEILRRLAVAQPRIRFTLRTESGSPTVFPAESEPGPAALLRRLGAVLGPDFPGNAVPVDMAREGFALAGHVGLPTFHRGAASHIHFVVNGRPVRDRLLLGAVRGAYADTMSSDRHPVLALHLTCDPALVDVNVHPAKTELRFREPGLVRALIVSAIHEALRRAGARSSSTGTQAVLDALRAGAGMGSAPPMAAGVGRFAVHSGASTASALNPRPASRLFSGPSVAAPAGYRPAPRPAFTEDHPGFAETPQALFSADLAPPGADLRPEPEAVSEAETHPEAHPLGAARAQIHETYIVAQTRDGIVLVDQHAAHERLVYERLKSERAGGGVLAQGLLIPDVVEMAPEEADRLVEAAPELERLGLTLEAFGPGAVLVRSVPSALAGGSVKGLVLDVLDALAASGVEEGGPAGAGDPDPVSRRLDAILSRMSCHGSIRAGRRLKPEEMNALLREMEATPLSGSCNHGRPTFVSLGLADIERLFGRR | failed
17 | MNIDAVVEFTKKHLKDEKTGHDFYHGQRVANLASKMYLEDHPDAHADSRMVAIIKSGGYLHDTIDEKVCDNPDKVIAEIKELLPEVGFTDLEVWDILFTIQHMSFSANIEHHYHLPLSGQYVQDADRLESLGAMGIARAFTYGGKHGNKIYDPEIKPEKLVSHDQYRNHVETTINHFYEKLFHLADTMNTPAMKKEANRRTEYMHNFVQEFMNEWNVLEHHHHHH | not failed
18 | MSYLVVTIKVILITGMPGSGKSEFAKLLKERGAKVIVMSDVVRKRYSIEAKPGERLMDFAKRLREIYGDGVVARLCVEELGTSNHDLVVFDGVRSLAEVEEFKRLLGDSVYIVAVHSPPKIRYKRMIERLRSDDSKEISELIRRDREELKLGIGEVIAMADYIITNDSNYEEFKRRCEEVTDRVLKNG | failed
19 | MFDFSIVTNWIHEMLLSVMPEGWAIFIECIAVGVCIVALYAILAIVLIYMERKVCGFFQCRLGPNRVGKWGSIQVICDVLKMLTKEIFTPKDADRFLYNLAPFMVIIASFLTFACIPFNKGAEILNFNVGVFFLLAASSIGVVGILLAGWGSNNKFSLIGAMRSGAQIISYELSVGMSIMTMVVLMGTMQFSEIVEGQADGWFIFKGHIPAVIAFIIYLIAGNAECNRGPFDLPEAESELTAGYHTEYSGMHFGFFYLAEYLNLFIVASVAATIFLGGWMPLHIIGLDGFNAVMDYIPGFIWFFAKAFFVVFLLMWIKWTFPRLRIDQILNLEWKYLVPISMVNLLLMACCVAFGFHF | failed
20 | MAKPNIDELNQILTSYQNTINDTLQLFEQVPSPTQDKLYWNDVLQISDHLSKQATIVGMLWITGEPPKAEAMKETMEAYFNALQGFLLHCHGSMVGAGTTLSSTIHASVKQIVDSSFRLLQGSVSLYEGSYEKGRKPTIPQLAGAVWEACSNLKNVPETNIKAIGRAMAHVAVSMKDVLREMKELKPASSSPDHNVSTNSDDDDLGDELSPEEFEVAKMVADIVSETLVVIKELIRAITCMIKLENPKDNSEFVDSFEKLLKLCQGIGVQIDELGACVYPPQEFGLMKQTVENMRESIGEIESDVKSSKNSSSEALSGSCRRLQSLIEHMVTELDTRIEAEVVYKMQNVTL | failed
21 | KFDSDIDEVVYGSRLIGSDPDLVLHGGGNTSVKTTERDHAGRIISVLRVKNSGSNLGTIDSRGFTGIRMDDALAAAKIDKMTDEAMVDYLKKSMVNPSEPSPSVETFLHAFLPYKFVMHSHADAILSITNTDLPSDQIAKILGNVVVLPYIPPGFTLAKEVMNCFKKGIDGIVLRKHGLLTFGDTGKEAYDRHINIVSRAENFIREKTDGK | not failed
22 | ELPSVEELTIILPEDIELKPLGMVSSIIEQLVIIESMTNLPPVNEETVIFKSDRQAAGKIFEIFGPVAHPFYVLRFNSSDHIESKGIKIKETMYFA | not failed

— a protein production outcome set (Wang et al. 2014)
